Bridges are numbered along the chain shown (N, C = ends). Primed or numbered codes have the meaning given here. Where no end group is shown, it is not given here. [ ]: non-standard residue; d: D form. Tz4″ = 1,4-disubstituted 1,2,3-triazole linker between anchor and secondary ligand; Lys(N3) = [N-]=[N+]=NCCCC[C@H](N)C(=O)O
B1: anchor ligand X-VEPNCDIHVMWEWECFERL-Az4 (peptide)
peptide: VEPNCDIHVMWEWECFERL[Lys(N3)]
modifications: disulfide 5-15; also: N-terminal X is biotin-PEG3 or acetyl, not settled
notes: Phage display-derived peptide; also called Biotin-PEG-anchor ligand-Az4
B2: Biligand 2 (X-…-Tz4-Ifrew) (designed binder)
peptide: VEPNCDIHVMWEWECFERL[Tz4″][dL][dF][dR][dE][dW]
modifications: disulfide 5-15; numbers in words are those of the source; also: N-terminal group is biotin-PEG3 or acetyl, not fixed

Tests used:
[1] = target: T1, human VEGF165A (#ab56620; Abcam) (human, UniProt P15692-4 27-191, biotinylated (EZ-Link Sulfo-NHS-LC-Biotinylation kit) in the competitive ELISAs of Examples 8, 9 and 16; unlabelled in the direct ELISA and the pull-down); assay: direct ELISA: VEGF165A immobilized on NUNC MaxiSorp plate, biotinylated peptide titrated, normalized to binding at saturation
T1 construct: Isoform VEGF165 of VEGF-A; also called rhVEGF165; biotinylated VEGF165
T1 sequence (P15692 other isoform, or with tags, fused parts or gaps limits assumed): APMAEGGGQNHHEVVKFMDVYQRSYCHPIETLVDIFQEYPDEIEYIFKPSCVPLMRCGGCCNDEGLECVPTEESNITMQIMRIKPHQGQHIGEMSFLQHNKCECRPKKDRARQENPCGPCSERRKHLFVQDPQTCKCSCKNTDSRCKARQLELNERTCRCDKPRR

[2] = target: T1, human VEGF165A (#ab56620; Abcam); assay: direct ELISA: VEGF165 coated on the plate, biotinylated binder titrated, streptavidin poly-HRP, fluorescence normalised to saturation
[3] = target: T1, human VEGF165A (#ab56620; Abcam); assay: direct ELISA: VEGF165A immobilized on NUNC MaxiSorp plate, biotinylated PCC or bevacizumab (mAb or Fab) titrated, normalized to binding at saturation
[4] = target: T1, human VEGF165A (#ab56620; Abcam); assay: competitive ELISA, inhibition of biotinylated VEGF165 binding to VEGFR2-Fc; competition ELISA: blocking of biotinylated VEGF165 binding to VEGFR2-Fc; anchor tested up to 50 µM
[5] = target: T1, human VEGF165A (#ab56620; Abcam); assay: direct ELISA, VEGF165 coated, biotinylated capture agent
[6] = target: T1, human VEGF165A (#ab56620; Abcam); assay: competitive ELISA, inhibition of biotinylated VEGF165 binding to VEGFR2-Fc; competition ELISA: blocking of biotinylated VEGF165 binding to VEGFR2-Fc; Biligand 2 tested up to 50 µM

Binder | EC50 (read off the curve) [1] [nM] | EC50 (read off the curve) [2] [nM] | EC50 (read off the curve) [3] [nM] | IC50 [4] [nM] | fold improvement in affinity relative to the anchor ligand [5] [fold] | IC50 [6] [nM]
B1 | ~300 | ~100 | ~100 | > 50000 | – | –
B2 | – | 50 | 40 | – | 5 | > 50000

From patent US20130156692A1 (INDI MOLECULAR, published 2013)
